Results taken from publication PMC6093649.

Target: T1, Chp2 chromodomain (recombinant Chp2-CD, wild type) (S. pombe)
T1 sequence (O42934 whole entry, looked up): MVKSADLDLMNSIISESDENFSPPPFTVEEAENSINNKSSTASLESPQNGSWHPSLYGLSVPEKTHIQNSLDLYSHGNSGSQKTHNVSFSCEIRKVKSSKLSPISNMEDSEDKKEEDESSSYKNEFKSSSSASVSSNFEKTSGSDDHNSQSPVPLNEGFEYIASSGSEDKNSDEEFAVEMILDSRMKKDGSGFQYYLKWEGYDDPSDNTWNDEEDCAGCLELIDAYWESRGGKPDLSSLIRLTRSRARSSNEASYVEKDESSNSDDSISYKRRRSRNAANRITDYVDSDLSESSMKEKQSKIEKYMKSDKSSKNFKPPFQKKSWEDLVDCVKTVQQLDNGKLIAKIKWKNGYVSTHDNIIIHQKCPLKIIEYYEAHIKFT
Assay: ITC; MicroCal VP-ITC, 20°C; Chp2-CD protein in 20 mM KPO4 pH 6.8, 100 mM NaCl; H3K9me3 peptide injected into the protein in 1-μl aliquots at 3-min intervals

Question: Which Kd does the source give for ARTKQTARKSTGGKAPRY (trimethyl-lysine at position 9 (Lys[Me]3)) [K9-trimethylated histone H3 (H3K9me3) peptide (1–18)] here?
Answer: 4.37 µM
